The record followed here is paper PMC10616211.

The target in experiment [1] is cytosolic fragment of MFN2 (modified, truncated human MFN2, residues 1–19 and 401–705 deleted) (human) (UniProt O95140). Briefly: ELISA; as the pH 6.2 plate assay, with purified DID as competitor (1 µM in the results; wells treated with 2 µM DID in the methods). (In general: ELISA stands for enzyme-linked immunosorbent assay.)
Experiment [2] shares this target. In words: ELISA; MFN2 coated on plates (0.1 µM); HEK293T lysate with DIAPH1-eCFP added in TBS pH 6.2, overnight 4 °C; anti-GFP-HRP; one site total and nonspecific binding fit.
Experiment [3] has the same target. In words: ELISA; MFN2 coated on plates (0.1 µM); HEK293T lysate with DIAPH1-eCFP added in TBS pH 7.2, overnight 4 °C; anti-GFP-HRP; one site total and nonspecific binding fit.

Sequence of DIAPH1-eCFP (O60610 whole entry): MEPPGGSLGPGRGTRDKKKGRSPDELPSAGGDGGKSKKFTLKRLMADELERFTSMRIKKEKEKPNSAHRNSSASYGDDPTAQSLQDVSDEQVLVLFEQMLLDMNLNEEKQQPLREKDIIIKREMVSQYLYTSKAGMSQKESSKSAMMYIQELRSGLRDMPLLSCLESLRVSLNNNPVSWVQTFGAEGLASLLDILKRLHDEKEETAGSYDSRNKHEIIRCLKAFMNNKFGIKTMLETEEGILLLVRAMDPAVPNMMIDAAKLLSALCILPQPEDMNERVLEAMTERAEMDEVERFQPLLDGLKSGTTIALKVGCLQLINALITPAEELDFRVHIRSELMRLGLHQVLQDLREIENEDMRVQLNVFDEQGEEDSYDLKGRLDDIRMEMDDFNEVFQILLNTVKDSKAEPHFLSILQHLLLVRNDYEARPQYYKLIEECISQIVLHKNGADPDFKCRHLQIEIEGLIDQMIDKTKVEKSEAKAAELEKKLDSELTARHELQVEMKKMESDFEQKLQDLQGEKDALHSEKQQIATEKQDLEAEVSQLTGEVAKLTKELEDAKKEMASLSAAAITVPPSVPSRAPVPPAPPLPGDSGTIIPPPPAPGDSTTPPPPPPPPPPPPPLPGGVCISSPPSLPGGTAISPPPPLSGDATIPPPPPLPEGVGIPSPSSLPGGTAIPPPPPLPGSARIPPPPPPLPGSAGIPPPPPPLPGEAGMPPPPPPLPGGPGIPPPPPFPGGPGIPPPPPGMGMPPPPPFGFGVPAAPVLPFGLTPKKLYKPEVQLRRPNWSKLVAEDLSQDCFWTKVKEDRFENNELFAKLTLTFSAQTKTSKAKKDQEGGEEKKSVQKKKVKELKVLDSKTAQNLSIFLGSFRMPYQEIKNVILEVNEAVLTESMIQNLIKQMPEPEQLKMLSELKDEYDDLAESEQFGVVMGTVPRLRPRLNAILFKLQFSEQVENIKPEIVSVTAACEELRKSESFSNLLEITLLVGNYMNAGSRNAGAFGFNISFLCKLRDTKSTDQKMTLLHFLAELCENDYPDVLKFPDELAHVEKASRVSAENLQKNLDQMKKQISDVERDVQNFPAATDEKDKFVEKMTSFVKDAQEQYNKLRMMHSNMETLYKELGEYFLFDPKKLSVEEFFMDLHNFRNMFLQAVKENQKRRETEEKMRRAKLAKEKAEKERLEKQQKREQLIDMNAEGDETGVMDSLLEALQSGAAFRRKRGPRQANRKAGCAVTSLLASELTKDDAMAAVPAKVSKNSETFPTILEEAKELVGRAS

A word on the Kd: it is a measure of binding affinity in units of concentration. Higher therefore signals weaker binding. With “DIAPH1-eCFP (from UniProt O60610 1-1272) (natural protein)”, the KD in the presence of 1 µM DID in experiment [1] stood at 0.22 nM. Besides, the Kd turned out to be 0.01 nM in experiment [2] and 0.7 nM in experiment [3].
